This data set concerns the molecule itself. Nature of the data set: SEC.

The source of these data is article PMC8329864, “Mycobacterium tuberculosis ferritin: a suitable workhorse protein for cryo-EM development” (Acta Crystallographica. Section D, Structural Biology, 2021).

B1: bacterioferritin B (BfrB) from Mycobacterium tuberculosis (natural protein)
chain: MTEYEGPKTKFHALMQEQIHNEFTAAQQYVAIAVYFDSEDLPQLAKHFYSQAVEERNHAMMLVQHLLDRDLRVEIPGVDTVRNQFDRPREALALALDQERTVTDQVGRLTAVARDEGDFLGEQFMQWFLQEQIEEVALMATLVRVADRAGANLFELENFVAREVDVAPAASGAPHAAGGRL
notes: also called BrfB; mycobacterial ferritin; copies: 24
Consider B1, for which the binding result is reported as “binds”.
